From article PMC6294517 come the findings set out here.

This data set deals with T1, SSBP1 (single-stranded DNA-binding protein 1, mitochondrial) (UniProt Q04837 17-148).
T1 sequence: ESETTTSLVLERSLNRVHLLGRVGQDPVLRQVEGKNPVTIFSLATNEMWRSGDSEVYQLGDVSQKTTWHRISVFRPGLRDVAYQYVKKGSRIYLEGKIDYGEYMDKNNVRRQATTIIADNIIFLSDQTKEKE
The data set can be described thus: fluorescence anisotropy. For orientation: Fluorescence polarisation rises when a labelled molecule tumbles more slowly, as on binding a larger partner.

B1: 5x 6mA fluorescent probe (PG491/PG493) (dsDNA)
DNA 1: TATTTAACCTAAATTTCTATAAGATTATTAGTATAAAAGGG
DNA 2: CCCTTTTATACTAATAATCTTATAGAAATTTAGGTTAAATA
modifications: N6-methyldeoxyadenosine at strand 1 positions 19, 24, 27, 30, 33
In the case of B1, the binding result is “binds”.
